Data: US20150147764

Key:
[1] = system: GTI_FRET4 polypeptide substrate (SEQ ID NO: 1), synthetic 62 amino acid VWF A2 domain derived substrate
[2] = system: GTI_FRET5 polypeptide substrate (SEQ ID NO: 7), synthetic 55 amino acid VWF A2 domain derived substrate
[3] = system: FRETS-VWF73 polypeptide substrate (SEQ ID NO: 6), VWF D1596 to R1668
FRETS-VWF73 polypeptide substrate (SEQ ID NO: 6), VWF D1596 to R1668, sequence (chain, as listed by the source): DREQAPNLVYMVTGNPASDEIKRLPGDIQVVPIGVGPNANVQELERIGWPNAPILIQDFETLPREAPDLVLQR

GTI_FRET4 polypeptide substrate (SEQ ID NO: 1), synthetic 62 amino acid VWF A2 domain derived substrate, sequence (chain, as listed by the source): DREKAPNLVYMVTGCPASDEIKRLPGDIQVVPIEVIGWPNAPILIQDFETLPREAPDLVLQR
GTI_FRET5 polypeptide substrate (SEQ ID NO: 7), synthetic 55 amino acid VWF A2 domain derived substrate, sequence (chain, as listed by the source): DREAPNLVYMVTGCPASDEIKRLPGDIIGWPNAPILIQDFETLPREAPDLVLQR

ADAMTS13 (a disintegrin-like and metallopeptidase with thrombospondin type-1 motif, 13), as present in plasma samples, calibrators and controls
Increase in fluorescence (15 min - 0 min reading), sample Calibrator A [1]: 676 RFU
Increase in fluorescence (15 min - 0 min reading), sample Calibrator B [1]: 1760 RFU
Increase in fluorescence (15 min - 0 min reading), sample Calibrator C [1]: 6180 RFU
Increase in fluorescence (15 min - 0 min reading), sample Calibrator D [1]: 10900 RFU
Increase in fluorescence (15 min - 0 min reading), sample Calibrator E [1]: 18700 RFU
Increase in fluorescence (15 min - 0 min reading), sample MON110707 [1]: 17900 RFU
Increase in fluorescence (15 min - 0 min reading), sample Positive Control High [1]: 9150 RFU
Increase in fluorescence (15 min - 0 min reading), sample Positive Control Low [1]: 2180 RFU
Increase in fluorescence (15 min - 0 min reading), sample UAMS041609 [1]: 3880 RFU
Increase in fluorescence (15 min - 0 min reading), sample VF [1]: 1290 RFU
Increase in fluorescence (30 min - 0 min reading), sample Calibrator A [1]: 843 RFU
Increase in fluorescence (30 min - 0 min reading), sample Calibrator B [1]: 3000 RFU
Increase in fluorescence (30 min - 0 min reading), sample Calibrator C [1]: 11700 RFU
Increase in fluorescence (30 min - 0 min reading), sample Calibrator D [1]: 20600 RFU
Increase in fluorescence (30 min - 0 min reading), sample Calibrator E [1]: 35100 RFU
Increase in fluorescence (30 min - 0 min reading), sample MON110707 [1]: 33400 RFU
Increase in fluorescence (30 min - 0 min reading), sample Positive Control High [1]: 17300 RFU
Increase in fluorescence (30 min - 0 min reading), sample Positive Control Low [1]: 3900 RFU
Increase in fluorescence (30 min - 0 min reading), sample UAMS041609 [1]: 7930 RFU
Increase in fluorescence (30 min - 0 min reading), sample VF [1]: 2440 RFU
Increase in fluorescence (45 min - 0 min reading), sample Calibrator A [1]: 921 RFU
Increase in fluorescence (45 min - 0 min reading), sample Calibrator B [1]: 4160 RFU
Increase in fluorescence (45 min - 0 min reading), sample Calibrator C [1]: 16800 RFU
Increase in fluorescence (45 min - 0 min reading), sample Calibrator D [1]: 29200 RFU
Increase in fluorescence (45 min - 0 min reading), sample Calibrator E [1]: 49400 RFU
Increase in fluorescence (45 min - 0 min reading), sample MON110707 [1]: 46800 RFU
Increase in fluorescence (45 min - 0 min reading), sample Positive Control High [1]: 24900 RFU
Increase in fluorescence (45 min - 0 min reading), sample Positive Control Low [1]: 5510 RFU
Increase in fluorescence (45 min - 0 min reading), sample UAMS041609 [1]: 11700 RFU
Increase in fluorescence (45 min - 0 min reading), sample VF [1]: 3550 RFU
Increase in fluorescence (60 min - 0 min reading), sample Calibrator A [1]: 1170 RFU
Increase in fluorescence (60 min - 0 min reading), sample Calibrator B [1]: 5360 RFU
Increase in fluorescence (60 min - 0 min reading), sample Calibrator C [1]: 21700 RFU
Increase in fluorescence (60 min - 0 min reading), sample Calibrator D [1]: 37300 RFU
Increase in fluorescence (60 min - 0 min reading), sample Calibrator E [1]: 61100 RFU
Increase in fluorescence (60 min - 0 min reading), sample MON110707 [1]: 58700 RFU
Increase in fluorescence (60 min - 0 min reading), sample Positive Control High [1]: 31900 RFU
Increase in fluorescence (60 min - 0 min reading), sample Positive Control Low [1]: 7170 RFU
Increase in fluorescence (60 min - 0 min reading), sample UAMS041609 [1]: 15900 RFU
Increase in fluorescence (60 min - 0 min reading), sample VF [1]: 4690 RFU
Increase in fluorescence (75 min - 0 min reading), sample Calibrator A [1]: 1010 RFU
Increase in fluorescence (75 min - 0 min reading), sample Calibrator B [1]: 6470 RFU
Increase in fluorescence (75 min - 0 min reading), sample Calibrator C [1]: 26700 RFU
Increase in fluorescence (75 min - 0 min reading), sample Calibrator D [1]: 44500 RFU
Increase in fluorescence (75 min - 0 min reading), sample Calibrator E [1]: 70600 RFU
Increase in fluorescence (75 min - 0 min reading), sample MON110707 [1]: 68400 RFU
Increase in fluorescence (75 min - 0 min reading), sample Positive Control High [1]: 39800 RFU
Increase in fluorescence (75 min - 0 min reading), sample Positive Control Low [1]: 8790 RFU
Increase in fluorescence (75 min - 0 min reading), sample UAMS041609 [1]: 19900 RFU
Increase in fluorescence (75 min - 0 min reading), sample VF [1]: 5780 RFU
Increase in fluorescence (90 min - 0 min reading), sample Calibrator A [1]: 959 RFU
Increase in fluorescence (90 min - 0 min reading), sample Calibrator B [1]: 7580 RFU
Increase in fluorescence (90 min - 0 min reading), sample Calibrator C [1]: 32200 RFU
Increase in fluorescence (90 min - 0 min reading), sample Calibrator D [1]: 53600 RFU
Increase in fluorescence (90 min - 0 min reading), sample Calibrator E [1]: 83000 RFU
Increase in fluorescence (90 min - 0 min reading), sample MON110707 [1]: 78400 RFU
Increase in fluorescence (90 min - 0 min reading), sample Positive Control High [1]: 47500 RFU
Increase in fluorescence (90 min - 0 min reading), sample Positive Control Low [1]: 10400 RFU
Increase in fluorescence (90 min - 0 min reading), sample UAMS041609 [1]: 24700 RFU
Increase in fluorescence (90 min - 0 min reading), sample VF [1]: 7260 RFU
RFU difference between Calibrator A (0% ADAMTS13 activity) and Calibrator E (100% ADAMTS13 activity) at 30 minutes [1]: approximately 34,000 Relative Fluorescence Units (RFU) difference
RFU difference between Calibrator A and E at 30 minutes [1]: approximately 35000 RFU
calibration curve / cleavage [2]: the resulting calibration curve that is obtained is linear (see FIG. 5) and cleavage of the substrate occurs
change in fluorescence with time (cleavage) [2]: demonstrates that cleavage of the SEQ ID NO: 7 polypeptide substrate occurs
RFU difference between Calibrator A and Calibrator E at 30 minutes [3]: approximately 1500 to 2000 RFU difference
RFU difference between Calibrator A and E at 30 minutes [3]: 2500 RFU observed for FRETS-VWF73
